Key:
[1] = target: T1, His6-Smt3-Parkin (full-length human parkin, tag kept, labelled with RED-tris-NTA) (human, UniProt O60260 1-465, RED-tris-NTA dye bound to the His tag (Monolith His-Tag Labelling Kit RED-tris-NTA 2nd Generation)); assay: MST; His6-Smt3-Parkin constructs labelled with RED-tris-NTA; unlabelled partner in up to 16 1:1 serial dilutions (from 50 µM for Miro1^181-579); 25°C; PBS-T (PBS 1x, 0.05% Tween 20); 1:1 fit; settings: both partners purified
T1 construct: human parkin, full-length; Used for MST only; source: E. coli BL21(DE3), purified; not shown: His6, N-terminal, kept; Smt3, N-terminal, kept

[2] = target: T2, human parkin, full-length, affinity tag cleaved (human, UniProt O60260 1-465); assay: MST + ITC; parkin with CISD1 (Supplementary Fig. S2); the text names 'either MST or ITC' and does not tell which was used for CISD1; settings: both partners purified
T2 construct: human parkin (RBR E3 ubiquitin ligase), full-length; the MST used the uncleaved His6-Smt3 form; also called unphosphorylated parkin; source: E. coli BL21(DE3), purified (Ni-NTA HisTrap FF, Ulp1 cleavage, gel filtration); not shown: His6, N-terminal, cleaved; Smt3, N-terminal, cleaved
T2 sequence (O60260 whole entry): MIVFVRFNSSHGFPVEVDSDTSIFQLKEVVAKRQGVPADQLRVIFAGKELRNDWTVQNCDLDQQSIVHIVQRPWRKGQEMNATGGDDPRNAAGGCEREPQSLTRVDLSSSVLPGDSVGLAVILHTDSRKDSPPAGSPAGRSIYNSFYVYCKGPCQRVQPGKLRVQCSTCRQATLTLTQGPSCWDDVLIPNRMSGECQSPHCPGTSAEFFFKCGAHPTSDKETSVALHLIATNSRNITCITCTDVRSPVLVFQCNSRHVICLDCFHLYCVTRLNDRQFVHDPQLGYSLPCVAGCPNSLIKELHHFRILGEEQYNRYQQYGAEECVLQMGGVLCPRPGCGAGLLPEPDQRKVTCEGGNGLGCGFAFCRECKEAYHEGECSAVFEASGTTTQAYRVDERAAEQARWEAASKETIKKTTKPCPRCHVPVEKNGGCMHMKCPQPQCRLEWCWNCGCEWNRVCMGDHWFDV

T1 sequence (O60260 whole entry): as above

B1: Miro1^181-579 (near full-length, soluble construct of Miro1 that lacks only its GTPase1 domain) (domain or fragment, human, UniProt Q8IXI2 181-579, looked up)
chain: MKPACIKALTRIFKISDQDNDGTLNDAELNFFQRICFNTPLAPQALEDVKNVVRKHISDGVADSGLTLKGFLFLHTLFIQRGRHETTWTVLRRFGYDDDLDLTPEYLFPLLKIPPDCTTELNHHAYLFLQSTFDKHDLDRDCALSPDELKDLFKVFPYIPWGPDVNNTVCTNERGWITYQGFLSQWTLTTYLDVQRCLEYLGYLGYSILTEQESQASAVTVTRDKKIDLQKKQTQRNVFRCNVIGVKNCGKSGVLQALLGRNLMRQKKIREDHKSYYAINTVYVYGQEKYLLLHDISESEFLTEAEIICDVVCLVYDVSNPKSFEYCARIFKQHFMDSRIPCLIVAAKSDLHEVKQEYSISPTDFCRKHKMPPPQAFTCNTADAPSKDIFVKLTTMAMY
notes: source: E. coli BL21(DE3); purified as previously described by Kumar et al. [11]
With B1 the Kd [1] was > 100 µM.

B2: human CISD1 (residues 32-108), entire extramembranous portion (domain or fragment, UniProt Q9NZ45 32-108, looked up)
chain: KRFYVKDHRNKAMINLHIQKDNPKIVHAFDMEDLGDKAVYCRCWRSKKFPFCDGAHTKHNEETGDNVGPLIIKKKET
notes: human CISD1 (MitoNEET) lacking only its transmembrane domain, residues 32-108; also called MitoNEET; source: E. coli BL21(DE3) with FeCl3 in the media, purified (Ni-NTA, TEV cleavage, gel filtration); not shown: His6, N-terminal, cleaved
With B2 the Kd [2] was > 100 µM.

Reference: PMC9022993, “Distinct phosphorylation signals drive acceptor versus free ubiquitin chain targeting by parkin” (Biochemical Journal, 2022)
